The source of these data is IntAct's records for PubMed 25239945.

B1: Signal peptide peptidase (Homo sapiens), Q8TCT9 (parent)
chain: MDSALSDPHNGSAEAGGPTNSTTRPPSTPEGIALAYGSLLLMALLPIFFGALRSVRCARGKNASDMPETITSRDAARFPIIASCTLLGLYLFFKIFSQEYINLLLSMYFFVLGILALSHTISPFMNKFFPASFPNRQYQLLFTQGSGENKEEIINYEFDTKDLVCLGLSSIVGVWYLLRKHWIANNLFGLAFSLNGVELLHLNNVSTGCILLGGLFIYDVFWVFGTNVMVTVAKSFEAPIKLVFPQDLLEKGLEANNFAMLGLGDVVIPGIFIALLLRFDISLKKNTHTYFYTSFAAYIFGLGLTIFIMHIFKHAQPALLYLVPACIGFPVLVALAKGEVTEMFSYEESNPKDPAAVTESKEGTEASASKGLEKKEK
partner: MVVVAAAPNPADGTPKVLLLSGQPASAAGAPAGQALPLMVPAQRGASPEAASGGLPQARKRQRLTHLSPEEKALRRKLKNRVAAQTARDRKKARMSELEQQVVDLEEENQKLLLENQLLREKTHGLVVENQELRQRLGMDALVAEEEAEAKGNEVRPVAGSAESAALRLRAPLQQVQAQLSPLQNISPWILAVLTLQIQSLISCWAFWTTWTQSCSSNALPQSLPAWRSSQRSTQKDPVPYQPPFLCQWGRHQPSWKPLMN

Variants of B1 are the subject of this assay. The note with it: with XBP1, P17861-1.
D265A: the “effect of a mutation on the interaction” value is recorded as “increasing interaction”.
